Six molecules from PMC3305660, “Regulatory interactions for iron homeostasis in Aspergillus fumigatus inferred by a Systems Biology approach” can be followed below.

The chains are these.
T1: SrbA161-267 (bHLHZ DNA-binding domain) (Aspergillus fumigatus, UniProt Q4WIN1 161-267)
T1 sequence: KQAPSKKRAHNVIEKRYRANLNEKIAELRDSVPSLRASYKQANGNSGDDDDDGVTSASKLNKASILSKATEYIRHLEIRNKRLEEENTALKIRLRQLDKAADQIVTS

B1: srbApmm0mut (srbA* mutated site) (dsDNA)
DNA 1: TTCCCGCGATATAACATAGTGCTCCG
DNA 2: CGGAGCACTATGTTATATCGCGGGAA
B2: srbApmm0 (srbA -735 to -726) (dsDNA)
DNA 1: TTCCCGCGATCATACGATGTGCTCCG
DNA 2: CGGAGCACATCGTATGATCGCGGGAA
B3: hemApmm12 (hemA -338 to -347) (dsDNA)
DNA 1: CTGAGGCAATGAGGCGATGAGGCAAC
DNA 2: GTTGCCTCATCGCCTCATTGCCTCAG
B4: hemApmm11 (hemA -527 to -518) (dsDNA)
DNA 1: TCCCCAGTATCGGATCATACGGCTAC
DNA 2: GTAGCCGTATGATCCGATACTGGGGA
B5: hapXpmm11 (hapX -774 to -783) (dsDNA)
DNA 1: GCCTTTGAATGGGAGGATTCTTTATT
DNA 2: AATAAAGAATCCTCCCATTCAAAGGC
B6: hapXpmm12 (hapX -1340 to -1331) (dsDNA)
DNA 1: CAGATAAGATCAGATGATGAAGGGAT
DNA 2: ATCCCTTCATCATCTGATCTTATCTG

This data set has as its target T1, SrbA161-267 (bHLHZ DNA-binding domain). As to the kind of experiment: SPR; SPR kinetics on immobilized biotinylated DNA duplexes; buffer, salt, pH and temperature not given in the material (details in Additional file 2). As to conditions: protein: recombinant; chain copies: 2; label: 5' biotin on strand 1; blunt.
With B1, the Kd worked out at 386 ± 7.3 nM.

As to B2, the Kd came out at 0.63 ± 0.04 nM.

With B3, the Kd turned out to be 35.7 ± 0.52 nM.

Consider B4, for which the Kd was determined as 4.18 ± 0.41 nM.

For the molecule B5, the equilibrium dissociation constant (Kd) amounted to 282 ± 5.1 nM.

Regarding B6, the Kd is 4.64 ± 0.03 nM.
